Here are results for one molecule from patent publication US20160207996A1 (ARGEN X N V, published 2016).

For experiment [1], the target named is T1, hNav1.7-loopA3-llama Fc fusion (human).
T1 construct: also called hNav1.7-loopA3-llFc; loopA3-llamaFc chimera
T1 chain: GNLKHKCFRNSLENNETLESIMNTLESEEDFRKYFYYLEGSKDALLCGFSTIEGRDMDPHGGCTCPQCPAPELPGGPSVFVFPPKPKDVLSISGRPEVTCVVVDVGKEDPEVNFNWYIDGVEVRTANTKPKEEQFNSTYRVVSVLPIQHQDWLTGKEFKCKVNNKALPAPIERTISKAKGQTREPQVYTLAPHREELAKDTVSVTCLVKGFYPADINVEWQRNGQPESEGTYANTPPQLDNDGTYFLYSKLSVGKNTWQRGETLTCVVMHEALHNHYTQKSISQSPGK
The experiment can be described thus: ELISA, coated loopA3-llama Fc 10 ng/well, mAb titrated. The method, then: In a next experiment, the binding affinity of the loop-specific mAbs was determined and compared to reference mAbs as described in US2011/0135662 (for loop A3: UCB_932, for loopB1-C1-D1: UCB_983, for loopC3: UCB_1066; US2011/0135662). Affinities were determined using an ELISA with a loop-coating of 10 ng/well (loopA3-llama Fc), 20 ng/well (loop-B1-C1-D1-llama Fc) or 50 ng/well (loopC3-llama Fc). The remainder of the experimental setup was identical to abovementioned binding ELISAs. Most of the mAbs show pM affinity for the respective hNav1.7 extracellular loop they are binding. […] The EC₅₀ for the reference mAbs could not be determined (nd) from the ELISA data available because the binding was too weak.

Experiment [2] addresses T2, hNav1.5-loopA3-llFc (human).
T2 construct: also called Nav1.5 extracellular loop A3 llamaFc chimera
T2 chain: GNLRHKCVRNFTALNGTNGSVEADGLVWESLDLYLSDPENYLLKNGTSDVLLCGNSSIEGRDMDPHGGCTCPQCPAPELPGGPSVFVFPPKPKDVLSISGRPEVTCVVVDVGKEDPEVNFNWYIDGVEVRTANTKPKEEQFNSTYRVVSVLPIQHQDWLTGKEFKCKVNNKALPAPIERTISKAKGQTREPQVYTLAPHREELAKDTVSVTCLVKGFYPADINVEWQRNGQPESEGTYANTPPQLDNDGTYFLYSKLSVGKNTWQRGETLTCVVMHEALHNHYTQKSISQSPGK
The experiment can be described thus: binding ELISA on coated hNav1.5 loop A3-llama Fc, OD620. The text has this: (§1) The therapeutic potency of an anti-hNav1.7 antibody will highly depend on the lack of binding to other Nay family members. Of particular interest is hNav1.5, which is expressed on cardiac muscle cells. As such, cross-reactive binding of hNav1.7 antibodies to hNav1.5 could lead to heart failure. To assay the specificity of the mAbs derived from DNA immunization for hNav1.7, the corresponding loopA3 and loopB1-C1-D1 sequences of hNav1.5 were cloned as llamaFc chimera and cross-reactivity was determined using a binding ELISA (FIG. 8). All clones, except clone 9A6 and 9H4, show no cross-reactivity to hNav1.5. In addition, cross reactivity for hNav1.2 was tested for the loopA3-binding clones 8A7 and 8B6 using hNav1.2 and hNav1.7 derived monomeric, GST-tagged loopA3 peptides (Abnova, H00006326-Q01 (hNav1.2) and H00006335-Q01 (hNav1.7)). Again, no cross-reactive binding was observed.
In general terms: In an ELISA, binding on a coated surface is turned into a signal by an enzyme label.

Experiment [3] concerns the target human Nav1.7 (full length) (human) (UniProt Q15858). The experiment can be described thus: cell-based or functional assay.
The target of experiment [4] is T3, GST-tagged hNav1.2-loopA3 (human, UniProt Q99250 273-362).
T3 construct: bought (Abnova); monomeric; also called hNav1.2 derived monomeric GST-tagged loopA3 peptide; Abnova H00006326-Q01; not shown: GST tag
The experiment can be described thus: binding ELISA on coated GST-tagged hNav1.2 loop A3 peptide, OD620.
Source text: as §1

The target of experiment [5] is T4, mouse A3-llamaFc (mouse, UniProt Q62205 269-319).
T4 construct: also called wild-type mouse A3 loop; not shown: linker and llama Fc of the A3-llamaFc construct
T4 sequence: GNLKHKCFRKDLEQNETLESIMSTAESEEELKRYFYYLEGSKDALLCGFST
The experiment can be described thus: binding ELISA of mAb 8A7 on coated loop A3-llama Fc chimeras, OD450.

Experiment [6] concerns the target T5, Mouse A3 mut1 (mouse-human chimera, UniProt Q62205 269-319).
T5 construct: also called mouse A3 mut1 loop; not shown: linker and llama Fc of the A3-llamaFc construct
The experiment is described as above.

Experiment [7] addresses T1, hNav1.7-loopA3-llama Fc fusion. Described as above.

T3 sequence (Q99250 273-362 limits assumed): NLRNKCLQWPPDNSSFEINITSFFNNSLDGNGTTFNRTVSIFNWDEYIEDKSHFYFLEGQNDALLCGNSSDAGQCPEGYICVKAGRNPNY

B1: 8A7 (antibody, human IgG1, V domains shown)
VH: EVQVQESGPGLVTPSQTLSLTCTVSGGSIKNNYYYWNWIRQPPGKGLEWMGAIAYSGSTYYSPSLQSRTSISRDTSKNQFTLQLSSVTPEDTAVYYCARVPSVFGLPYGGMNYWGKGTLVTVSS
VL: SYELTQSPSVTVALRQTAKITCGGSRIGSKSVQWYQQKPGQVPVLVIYADNRRPSRIPERFSGSNSGNTATLIISGAQAEDEADYYCQVWDSSAAVFGGGTHLTVLG
notes: also called mAb 8A7
For orientation: EC50 means the concentration giving half of the maximal effect. A lower EC50 goes with a more potent agent. Broadly, the EC50 (read off the curve) is the concentration at which the effect is half-maximal. Lower therefore signals a more potent agent. In experiment [1], B1 returned an EC50 of 0.23 nM. For the same molecule, the binding result in experiment [2] is given as “no binding (tested: about 66 ng/ml (axis as labelled))”; in experiment [4], “no binding (tested: about 130 nM)”; in experiment [5], “no binding (tested: about 33 nM)”; in experiment [6], “no binding (tested: about 33 nM)”. The molecule further displayed a % inhibition of inward current following P02 voltage protocol, 10 µg/ml in experiment [3] of 4%. This molecule also gave a % inhibition of inward current following P02 voltage protocol, 25 µg/ml in experiment [3] of 33.3%. For the same molecule, in experiment [3], the % inhibition of inward current following P02 voltage protocol, 100 µg/ml was determined as 47.6%. In addition, in experiment [7], the “EC50 (read off the curve)” value was around 0.08 nM.
